Laboratory results: the supplement of paper PMC11780869

System: Bacillus subtilis
Experiment: cleaved RNA product abundance (RNA/gDNA barcode ratio) relative to median wild-type variant (ratio to wild type); higher = more accumulation of the downstream cleavage product
Outline: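 Cleaved product abundance was measured with barcoded reporter mRNAs (truncated aprE or tetM) carrying mutagenized RNase Y cleavage-site windows in the B. subtilis chromosome. Cultures in LB at 37°C grew from OD600 0.0003 to 0.3. Gel-selected cleaved RNA was reverse transcribed and barcode-sequenced with genomic DNA barcodes, and the RNA:gDNA barcode ratio per construct was scaled to the median construct bearing the unmutated site.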

[1] = experiment (reporter, strain, medium): exp 4a: truncated aprE reporter, strain BJT201 with 2% xylose (RNase J1 expressed), cleavage site: cggR-gapA (positions -7 to +36 mutated)
[2] = experiment (reporter, strain, medium): exp 2b: truncated aprE reporter, strain BJT200, cleavage site: cggR-gapA (positions -7 to +36 mutated)
[3] = experiment (reporter, strain, medium): exp 8a: truncated aprE reporter, strain BJT201 with 2% xylose (RNase J1 expressed), cleavage site: glnRA (positions -5 to +31 mutated)

Sequence	cleaved RNA product abundance [1]	cleaved RNA product abundance [2]	cleaved RNA product abundance [3]	further results
ACAGACGAAGGAGCCGCAAAGAAGTTATTAACGGAAGAATAATCCCTCAATATAAATATCTCTCACTTATTTAAA	0.152			
ACAGACGAAGGAGCCGCAAAGAAGTTAATAAGGGATGAATAATTCCTCAATATAAATATCTCTCACTTATTTAAA	0.198	0.178		
ACAGACGAAGGAGCCGCAAAGATGTTATTAAGGGATGAATAAACCCTCAATATAAATATCTCTCACTTATTTAAA	0.275			
CGACATGTCCCGCTTCTTTCATTAATCCGTTACCAACTGTTTTGCGATATACATTTACCTTTTAAGAGGAGGAAT			0.264	
ACAGACGAAGGAGCCGCAAAGAAGTTGTTAAGGAATGAATAATCCCTCAATATAAATATCTCTCACTTATTTAAA	0.136			
ACAGACGAAGGAGCCGCAAAGAAGTTATTAAGGGATGAATAATCCCTTAATATAGATATCTCTCACTTATTTAAA	0.866			
ACAGACGAAGGAGCCGCAAAGAAGGTATTAAGAGATGAATAATCCCTCAATATAAATATCTCTCACTTATTTAAA	0.171			
ACAGACGAAGGAGCCGCAAAGAAATTATTAAGGGATGAATAATACCTCAATATAAATATCTCTCACTTATTTAAA	0.153	0.141		
ACAGACGAAGGAGCCGCAAAGTAGTTATTAAGGGATGAATAATCCCTCAATATAATTATCTCTCACTTATTTAAA	0.437			
ACAGACGAAGGAGCCGCAATGAAGTTATTAAGGGATGAAAAATCCCTCAATATAAATATCTCTCACTTATTTAAA	0.548			
CGACATGTCCCGCTTCTTTCATTAATAGGTTAGCAACTGTTTTGCTATATACATTTACCTTTTAAGAGGAGGAAT			0.766	
ACAGACGAAGGAGCCGCAAAGAAGTTATTAAGAGATGAATAAGCCCTCAATATAAATATCTCTCACTTATTTAAA	0.0929	0.1		
ACAGACGAAGGAGCCGCAAAGAAGTTATTAAGGGATGAATAATCACTCAATATAAAGATCTCTCACTTATTTAAA	0.0885			
ACAGACGAAGGAGCCGCAAAGAAGTTATTAAGGGATGAAGAATCCCCCAATATAAATATCTCTCACTTATTTAAA	0.183			
CGACATGTCCCGCTTCTTTCATTAATCCATTATCAACTTTTTTGCTATATACATTTACCTTTTAAGAGGAGGAAT			0.311	
ACAGACGAAGGAGCCGCAAGGAAGTTATCAAGGGATGAATAATCCCTCAATATAAATATCTCTCACTTATTTAAA	0.347	0.271		
ACAGACGAAGGAGCCGCAAAGAAGTTATTAACGGATAAATAATCCCTCAATATAAATATCTCTCACTTATTTAAA	0.188	0.103		
CGACATGTCCCGCTTCTTTCATTAATCCGTTAGCAAGTGTTTTGCTATAAACATTTACCTTTTAAGAGGAGGAAT			0.659	
ACAGACGAAGGAGCCGCAAAGAAGTTATTAAGGGATAAATAATACCTCAATATAAATATCTCTCACTTATTTAAA	0.0789	0.117		
ACAGACGAAGGAGCCGCAAAGAAGTTATTAAGGGATGAATAATCCCTAAGTATAAATATCTCTCACTTATTTAAA	0.502	0.255		

Sequence	cleaved RNA product abundance [1]	cleaved RNA product abundance [2]	cleaved RNA product abundance [3]	further results
ACAGACGAAGGAGCCGCAAAAAAGTTATTAACGGATGAATAATCCTTCAATATAAATATCTCTCACTTATTTAAA	0.191			
ACAGACGAAGGAGCCGCAAAGAAGTTCTTAAGGGATGAATAATCCCACAATATAAATATCTCTCACTTATTTAAA		0.119		
CGACATGTCCCGCTTCTTTCATTAATCCGTTAGCAACTATTTTGCTATATACATCTACCTTTTAAGAGGAGGAAT			0.944	
ACAGACGAAGGAGCCGCAGACAAGTTATTAAGGGATGAATAATCCCTCAATATAAATATCTCTCACTTATTTAAA	0.844			
CGACATGTCCCGCTTCTTTCATTAATCTGTTAGCAACTGTTTTGCTATAAACATTTACCTTTTAAGAGGAGGAAT			0.917	
ACAGACGAAGGAGCCGCAAAGAAGTTATTAATGGATGAATAACCCCTCAATATAAATATCTCTCACTTATTTAAA	0.0925	0.0893		
CGACATGTCCCGCTTCTTTCATTAATCCGTTAGTAACTGTTTTACTATATACATTTACCTTTTAAGAGGAGGAAT			1.04	
ACAGACGAAGGAGCCGCAAAGAAGTTATTAAGGAATGAATAATCCCTCAAAATAAATATCTCTCACTTATTTAAA	0.122	0.0937		
ACAGACGAAGGAGCCGCAAAAAAGTTATTAAGGGATGAATAATCTCTCAATATAAATATCTCTCACTTATTTAAA	0.694	0.703		cleaved RNA product abundance (experiment (reporter, strain, medium): exp 6: tetM reporter, strain 168, cleavage site: cggR-gapA (positions -7 to +36 mutated)): 0.897
ACAGACGAAGGAGCCGCAAAGAAGTTAATAAGGCATGAATAATCCCTCAATATAAATATCTCTCACTTATTTAAA	0.104	0.0718		
CGACATGTCCCGCTTCTTTCATTAATCCGTTAGCAACTTTTTTGCTATATTCATTTACCTTTTAAGAGGAGGAAT			0.521	
CGACATGTCCCGCTTCTTTCATTAATCCGTTTGAAACTGTTTTGCTATATACATTTACCTTTTAAGAGGAGGAAT			0.388	
ACAGACGAAGGAGCCGCAAAGAAGTTATTAAGGCATGAATAATCCCTCAAGATAAATATCTCTCACTTATTTAAA	0.142	0.0843		
ACAGACGAAGGAGCCGCAAAGAAGTTATTAAGAGATGAATTATCCCTCAATATAAATATCTCTCACTTATTTAAA	0.183	0.102		
ACAGACGAAGGAGCCGCAAAGAAGTTATTAAGGGATCAATATTCCCTCAATATAAATATCTCTCACTTATTTAAA		0.709		
CGACATGTCCCGCTTCTTTCATTAATCCGTTAGCAACTATTTTTCTATATACATTTACCTTTTAAGAGGAGGAAT			0.613	
CGACATGTCCCGCTTCTTTCATTAATCCGATAGCAACTGTTTTGCTATATAGATTTACCTTTTAAGAGGAGGAAT			1.02	
ACAGACGAAGGAGCCGCAAAGAAGTTATTAAGGGATGAATAATCAGTCAATATAAATATCTCTCACTTATTTAAA	0.0967			
CGACATGTCCCGCTTCTTTCATTACTCCGTTAGCAACTGTTTTGCTATATACATTGACCTTTTAAGAGGAGGAAT			1.16	
CGACATGTCCCGCTTCTTTCATTAATCCGTTAGCAACTGTTATGCTATATACAATTACCTTTTAAGAGGAGGAAT			1.02	

Sequence	cleaved RNA product abundance [1]	cleaved RNA product abundance [2]	cleaved RNA product abundance [3]	further results
ACAGACGAAGGAGCCGCAAAGAAGTAATTAAGGGATGAATAATCCCTCAATATAAAAATCTCTCACTTATTTAAA	0.282			
ACAGACGAAGGAGCCGCAAAGAAGTGATTAAGGGATGAATAATACCTCAATATAAATATCTCTCACTTATTTAAA	0.0889	0.105		
ACAGACGAAGGAGCCGCAAAGAAGTTATTAAGGGATGAATAATCCCTCAATATATATAACTCTCACTTATTTAAA	0.429	0.679		
ACAGACGAAGGAGCCGCAAAGAAGTTAATAAGGGATGAATCATCCCTCAATATAAATATCTCTCACTTATTTAAA	0.314	0.188		
ACAGACGAAGGAGCCGCAAAGAAGTTATTACGGGATGAATAATCACTCAATATAAATATCTCTCACTTATTTAAA		0.108		
ACAGACGAAGGAGCCGCAAAGAAGTTATTAAGGGATGAATAATACCCCAATATAAATATCTCTCACTTATTTAAA	0.149			
CGACATGTCCCGCTTCTTTCATTAATCCGTTAGCAAATGTTTTGCTACATACATTTACCTTTTAAGAGGAGGAAT			0.354	
ACAGACGAAGGAGCCGCAAAGAAGTTATGAAGGGATGAATAATCCATCAATATAAATATCTCTCACTTATTTAAA		0.185		
CGACATGTCCCGCTTCTTTCATTAATCCGTTAGCAACTGTTTTGCTATATAAATTAACCTTTTAAGAGGAGGAAT			1.01	
CGACATGTCCCGCTTCTTTCATTAATCCGTTAGCAACTGTTTTGCTATATACATTTCCTTTTTAAGAGGAGGAAT			0.345	
CGACATGTCCCGCTTCTTTCATTAATCCGTTATCAACTGTTTTGCTGTATACATTTACCTTTTAAGAGGAGGAAT			0.192	
CGACATGTCCCGCTTCTTTCATTACTCCCCTAGCAACTGTTTGGCTATATATATTTACCTTTTAAGAGGAGGAAT			0.221	
ACAGACGAAGGAGCCGCAAAGAAGTAATTAAGGGATGAATAATCCCTCAAAATAAATATCTCTCACTTATTTAAA	0.215	0.16		
ACAGACGAAGGAGCCGCAAATAAGTTATTAAGGTATGAATAAACCCTCAATATAAATATCTCTCACTTATTTAAA		0.118		
ACAGACGAAGGAGCCGCAAAGAAGTTATTAAGGGATGAATAATACCTCAATATAAACATCTCTCACTTATTTAAA	0.108			
CGACATGTCCCGCTTCTTTCATTAATTCGTTAGCAACTGTTTTGATATATACATTTACCTTTTAAGAGGAGGAAT			0.498	
ACAGACGAAGGAGCCGCAAAGAAGTTATAAAGGGATGAATGATCCCTCAATATAAATATCTCTCACTTATTTAAA	0.273	0.193		
ACAGACGAAGGAGCCGCAAAGAAGTTATTAAGAGATGAATAATCCCTCAATATAACTATCTCTCACTTATTTAAA	0.0935			
ACAGACGAAGGAGCCGCAAAGAAGTTATCAAGGGATGAATAATCCCTCAATATAAATGTCTCTCACTTATTTAAA	0.206	0.192		
ACAGACGAAGGAGCCGCAAAGAAGTTATTAAGGGAAGAATAATCCCTCAATATGAATATCTCTCACTTATTTAAA	0.0705			
